For the series the following is noted: Pseudomonas putida; pH 7; 25 °C; Urea; CD; potassium phosphate 20 mM; reversible: yes; whole UniProt chain shown.

The values that follow come from FireProtDB (doi:10.1021/bi015547k).

B1: Steroid Delta-isomerase wild type, P07445 (protein)
chain: MNLPTAQEVQGLMARYIELVDVGDIEAIVQMYADDATVEDPFGQPPIHGREQIAAFYRQGLGGGKVRACLTGPVRASHNGCGAMPFRVEMVWNGQPCALDVIDVMRFDEHGRIQTMQAYWSEVNLSVREPQ
Take B1: the denaturant m value was 3.39 kcal/mol/M, the “denaturant midpoint (higher = more stable)” value turned out to be 5.22 M and the unfolding free energy was found to be 24.3 kcal/mol.
